B1: Subtilisin inhibitor, P01006 (parent)
chain: MRNTGAGPSPSVSRPPPSAAPLSGAALAAPGDAPSALYAPSALVLTVGKGVSATTAAPERAVTLTCAPGPSGTHPAAGSACADLAAVGGDLNALTRGEDVMCPMVYDPVLLTVDGVWQGKRVSYERVFSNECEMNAHGSSVFAF

Variants of: B1
Conditions: Streptomyces albogriseolus, Thermal, DSC, reversible: yes, structure 3SSI, whole UniProt chain shown; for ddG of mutation (higher = less stable) / unfolding free energy: 53.36 °C

| Variant | ddG of mutation (higher = less stable) (pH 3.2, glycine 25 mM) [kcal/mol] | unfolding free energy (pH 3.2, glycine 25 mM) [kcal/mol] | ddG of mutation (higher = less stable) (pH 7, phosphate 25 mM) [kcal/mol] | unfolding free energy (pH 7, phosphate 25 mM) [kcal/mol] | Tm (pH 7, phosphate 25 mM) [°C] | change of melting temperature, mutant - wild type (higher = more stable) (pH 7, phosphate 25 mM) [°C] | unfolding enthalpy (calorimetric) (pH 7, phosphate 25 mM) [kcal/mol] | ddG of mutation (higher = less stable) (pH 9.5, glycine 25 mM) [kcal/mol] | unfolding free energy (pH 9.5, glycine 25 mM) [kcal/mol] | Tm (pH 9.5, glycine 25 mM) [°C] | change of melting temperature, mutant - wild type (higher = more stable) (pH 9.5, glycine 25 mM) [°C] | unfolding enthalpy (calorimetric) (pH 9.5, glycine 25 mM) [kcal/mol] | Tm (pH 3.2, glycine 25 mM) [°C] | change of melting temperature, mutant - wild type (higher = more stable) (pH 3.2, glycine 25 mM) [°C] | unfolding enthalpy (calorimetric) (pH 3.2, glycine 25 mM) [kcal/mol] |
| --- | --- | --- | --- | --- | --- | --- | --- | --- | --- | --- | --- | --- | --- | --- | --- |
| MRNTGAGPSPSVSRPPPSAAPLSGAALAAPGDAPSALYAPSALVLTVGKGVSATTAAPERAVTLTCAPGPSGTHPAAGSACADLAAVGGDLNALTRGEDVMCPVVYDPVLLTVDGVWQGKRVSYERVFSNECEMNAHGSSVFAF [M104V] | 0.46 | 5.09 | 0.66 | 5.37 | 81 | -1.17 | 193 | 0.95 | 5.09 | 79 | -1.75 | 189 |  |  |  |
| MRNTGAGPSPSVSRPPPSAAPLSGAALAAPGDAPSALYAPSALVLTVGKGVSATTAAPERAVTLTCAPGPSGTHPAAGSACADLAAVGGDLNALTRGEDVMCPGVYDPVLLTVDGVWQGKRVSYERVFSNECEMNAHGSSVFAF [M104G] |  |  | 0.06 | 5.97 |  |  |  | 0.49 | 5.55 | 79.8 | -0.87 | 186 | 52.7 | -0.7 | 106 |
| MRNTGAGPSPSVSRPPPSAAPLSGAALAAPGDAPSALYAPSALVLTVGKGVSATTAAPERAVTLTCAPGPSGTHPAAGSACADLAAVGGDLNALTRGEDVMCPKVYDPVLLTVDGVWQGKRVSYERVFSNECEMNAHGSSVFAF [M104K] |  |  | -0.35 | 6.38 | 82.9 | 0.65 | 192 | -0.05 | 6.09 | 80.9 | 0.17 | 188 | 57.1 | 3.71 | 107 |
| MRNTGAGPSPSVSRPPPSAAPLSGAALAAPGDAPSALYAPSALVLTVGKGVSATTAAPERAVTLTCAPGPSGTHPAAGSACADLAAVGGDLNALTRGEDVMCPDVYDPVLLTVDGVWQGKRVSYERVFSNECEMNAHGSSVFAF [M104D] |  |  | -1.6 | 7.63 | 85.3 | 3.08 | 182 | -1.25 | 7.29 | 83.3 | 2.59 | 177 | 56.8 | 3.46 | 98.7 |
